Test results reported in US20230340089A1 (CITY OF HOPE, published 2023).

Key:
[1] = biological target: T1, Structural Maintenance of Chromosome-1A (SMC1A) (human, UniProt Q14683 1-1233); test: immunoprecipitation, then Western blot with the Bethyl anti-human SMC1A polyclonal antibody
T1 construct: whole, on cells; Endogenous antigen; It is on live or fixed cells in flow cytometry, LI-COR cell surface assay, ICC and immunogold EM, and in cell lysates in Western blot and immunoprecipitation; No recombinant SMC1A was used; also called SMC1A antigen; surface SMC1
T1 sequence (looked up): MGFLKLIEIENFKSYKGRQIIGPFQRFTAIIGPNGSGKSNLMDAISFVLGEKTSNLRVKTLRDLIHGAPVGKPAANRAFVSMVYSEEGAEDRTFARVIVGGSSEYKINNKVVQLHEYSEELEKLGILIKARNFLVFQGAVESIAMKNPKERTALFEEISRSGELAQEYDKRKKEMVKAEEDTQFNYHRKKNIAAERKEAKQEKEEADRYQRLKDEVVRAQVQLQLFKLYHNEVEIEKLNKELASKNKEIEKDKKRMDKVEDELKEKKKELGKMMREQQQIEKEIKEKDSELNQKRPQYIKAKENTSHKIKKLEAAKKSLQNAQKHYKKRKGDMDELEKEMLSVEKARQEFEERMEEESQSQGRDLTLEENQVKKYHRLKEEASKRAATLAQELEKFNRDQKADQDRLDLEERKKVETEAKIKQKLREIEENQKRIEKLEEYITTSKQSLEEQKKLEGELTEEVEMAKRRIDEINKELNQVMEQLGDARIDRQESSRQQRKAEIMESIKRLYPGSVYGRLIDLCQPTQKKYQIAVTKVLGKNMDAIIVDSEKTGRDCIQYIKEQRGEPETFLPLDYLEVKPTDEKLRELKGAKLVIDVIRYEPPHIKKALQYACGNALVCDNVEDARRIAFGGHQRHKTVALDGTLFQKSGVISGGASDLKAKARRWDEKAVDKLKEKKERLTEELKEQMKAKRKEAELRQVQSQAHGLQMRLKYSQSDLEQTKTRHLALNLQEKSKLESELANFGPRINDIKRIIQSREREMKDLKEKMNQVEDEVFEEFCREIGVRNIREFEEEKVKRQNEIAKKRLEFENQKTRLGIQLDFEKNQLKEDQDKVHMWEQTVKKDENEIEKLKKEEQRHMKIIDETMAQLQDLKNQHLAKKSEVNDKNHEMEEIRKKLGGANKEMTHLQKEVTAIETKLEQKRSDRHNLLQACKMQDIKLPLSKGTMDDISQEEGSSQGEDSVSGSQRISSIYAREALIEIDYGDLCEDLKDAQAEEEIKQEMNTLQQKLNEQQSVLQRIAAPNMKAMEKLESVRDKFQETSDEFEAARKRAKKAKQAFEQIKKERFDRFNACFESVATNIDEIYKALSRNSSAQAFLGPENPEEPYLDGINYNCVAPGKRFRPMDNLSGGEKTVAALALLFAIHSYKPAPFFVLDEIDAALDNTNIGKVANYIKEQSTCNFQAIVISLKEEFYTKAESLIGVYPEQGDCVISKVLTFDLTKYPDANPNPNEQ

[2] = biological target: T1, Structural Maintenance of Chromosome-1A …; test: Western blot of HCT116, HT29 and MDA-MB-231 lysates, 1 ug/ml
Protocol: For each Westem blot, the cell lysates used as samples were from HCT116 cells (1), HT29 cells (2) and MDA-MB-231 cells (3). […] The secondary antibody used was an anti-human-HRP (dilution 1:3000) and incubated for 1 hour at room temperature with the overnight incubations.

[3] = biological target: T1, Structural Maintenance of Chromosome-1A …; test: LI-COR based cell surface assay on tumor cells

B1: SMC1A4-chimeric antibody (antibody, V domains shown)
VH: VQLQQSGAELVKPGASVKLSCTASGFNIKDPYMHWVKQRPEQGLEWIGWITPANGNTKYDPKFQAKATITADTYSNTAYLQFSSLTSEDTAVYFCARSGDAYYWAWFAYWGQGTLVTVSA
VL: DVLMTQTPLSLTVSLGDQASISCRSSQSIVHSNGNTYLEWYLQKPGQSPKLLIYKVSNRFSGVSDRFSGSGSGTDFTLKISRVEAEDLGVYYCFQGPLYTFGGGTKLEIKR
notes: Chimeric IgG detected with anti-human secondary antibodies; also called chimeric SMC1A4; SMC1A4 chimeric monoclonal antibody
B1: binds [1].

B2: meditope-enabled SMC1A4 (antibody, human IgG1, kappa, V domains shown)
VH: EVQLVESGGGLVQPGGSLRLSCAASGFNIKDPYMHWVRQSPGKGLEWIGWITPANGNTKYADSVKGRATISADTSKNTAYLQMNSLRAEDTAIYFCARSGDAYYWAWFAYWGQGTLVTVSS
VL: DVQMTQSPILLSASVGDRVTITCRSSQSIVHSNGNTYLEWYQQRTNGSPRLLIYKVSNRFSGVPSRFSGSGSGTDFTLTISSLQPEDIADYYCFQGPLYTFGAGTKVEIKR
notes: It was detected with anti-human secondary antibodies; also called SMC1A4-me; SMC1A4-ME
B2: binds [2].

B3: SMC1-Beta (antibody, V domains shown)
VH: EVKLQESGPELVKSGASVKIPCKASGYTFTDFNIEWVKQNRGKSLEWIGDINPSNGETIYNKKFKGKATLTVDKSSTTAFMELRSLTSEDTAVYYCARDHYYGYDYDAMDYWGQGTSVTVSS
VL: QIVLTQSPAIMSASPGEKVTMTCSASSSIGYMHWYQQKPGTSPKRWIYDRSKLASGVPARFSGSGSGTSFSLTISSMEAEDAATYYCHQRSRYPYTFGGGTKLEIKR
B3: binds [3].

B4: SMC1A1 (antibody, V domains shown)
VH: VTLKESGPGILQPSQTLSLTCSFSGFSLSTSGMGVGWIRQPSGKGLEWLAHIWWDDDQYSNTALRSGLTISKDTSKNQVFLKIASVDTSDTATYYCARVTTDAVDYWGQGTSVTVSS
VL: QIVLTQSPAIMSISPGERVTMTCSASSGLTYMYWYQQKPGSSPRLLIYDTSNLASGVPVRFSGSGSGTSYSLTISRMEAEDAATYYCQQWKSFPPTFGGGTKLEIKR
notes: also called SMC1A-ALPHA1
B4: binds [3].

B5: chimeric SMC1A1 mAb (antibody, V domains shown)
VH: B4 VH
VL: B4 VL
notes: also called SMC1A-ALPHA1
B5: binds [1].
